Reference: paper doi:10.1101/2025.03.30.646141v1

Tests used:
purified protein [1] = substrate: NC[C@@H]1O[C@H](O[C@H]2[C@@H](O)[C@H](O[C@@H]3[C@@H](O)[C@H](N)C[C@H](N)[C@H]3O[C@H]3O[C@H](CN)[C@@H](O)[C@H](O)[C@H]3N)O[C@@H]2CO)[C@H](N)[C@@H](O)[C@@H]1O; test: purified protein; conditions: 100 µM MgATP, Tris buffer pH 7.5, 25 °C
purified protein [2] = substrate: NC[C@H]1O[C@H](O[C@H]2[C@H](O[C@@H]3O[C@H](CO)[C@@H](O)[C@H]3O)[C@@H](O)[C@H](N)C[C@@H]2N)[C@H](N)[C@@H](O)[C@@H]1O; test: purified protein; conditions: 100 µM MgATP, Tris buffer pH 7.5, 25 °C
purified protein [3] = substrate: NC[C@@H]1O[C@H](O[C@H]2[C@@H](O)[C@H](O[C@@H]3[C@@H](O)[C@H](N)C[C@H](N)[C@H]3O[C@H]3O[C@H](CO)[C@@H](O)[C@H](O)[C@H]3N)O[C@@H]2CO)[C@H](N)[C@@H](O)[C@@H]1O; test: purified protein; conditions: 100 µM MgATP, Tris buffer pH 7.5, 25 °C
purified protein [4] = substrate: NC[C@H]1O[C@H](O[C@H]2[C@H](O)[C@@H](O[C@H]3O[C@H](CO)[C@@H](O)[C@H](N)[C@H]3O)[C@H](N)C[C@@H]2N)[C@H](N)[C@@H](O)[C@@H]1O; test: purified protein; conditions: 100 µM MgATP, Tris buffer pH 7.5, 25 °C
purified protein [5] = substrate: NC[C@H]1O[C@H](O[C@H]2[C@H](O)[C@@H](O[C@H]3O[C@H](CO)[C@@H](O)[C@H](N)[C@H]3O)[C@H](N)C[C@@H]2N)[C@H](O)[C@@H](O)[C@@H]1O; test: purified protein; conditions: 100 µM MgATP, Tris buffer pH 7.5, 25 °C
steady-state kinetics [6] = substrate: Nc1ncnc2c1ncn2[C@@H]1O[C@H](COP(=O)(O)OP(=O)(O)OP(=O)(O)O)[C@@H](O)[C@H]1O; test: steady-state kinetics; assay type: biochemical, Pseudomonas aeruginosa; conditions: 100 µM kanamycin A, Tris buffer pH 7.5, Mg2+, 25 °C
steady-state kinetics [7] = substrate: Nc1nc2c(ncn2[C@@H]2O[C@H](COP(=O)(O)OP(=O)(O)OP(=O)(O)O)[C@@H](O)[C@H]2O)c(=O)[nH]1; test: steady-state kinetics; assay type: biochemical, Pseudomonas aeruginosa; conditions: 100 µM kanamycin A, Tris buffer pH 7.5, Mg2+, 25 °C

B1: APH(3’)-IIb WT (Pseudomonas aeruginosa PAO1) (protein)
chain: MHDAATSMPPQAPSTWADYLAGYRWRGQGEGCSAATVHRLEAARRPTLFVKQEVLSAHAELPAEIARLRWLHGAGIDCPQVLNETQSDGRQWLLMSAVPGDTLSALAQRGELEPERLVRLVAAALRRLHDLDPAACPFDHRLERRLDTVRQRVEAGLVDEADFDDDHRGRSATELYRLLLDRRPAVEDLVVAHGDACLPNLLAEGRRFSGFIDCGRLGVADRHQDLALAARDIEAELGAAWAEAFLVEYGGDIDGERLAYFRLLDEFF
Purified protein [1]
  Km: 0.27 ± 0.10 µM
  kcat: 1.98 ± 0.17 s⁻¹
Purified protein [2]
  Km: 1.17 ± 0.26 µM
Purified protein [3]
  Km: 0.50 ± 0.10 µM
  kcat: 2.64 ± 0.14 s⁻¹
Purified protein [4]
  Km: 0.19 ± 0.07 µM
  kcat: 2.13 ± 0.20 s⁻¹
Purified protein [5]
  Km: 0.21 ± 0.10 µM
  kcat: 0.58 ± 0.04 s⁻¹
steady-state kinetics [6]
  Km: 3 µM
  kcat: 0.38 s⁻¹
steady-state kinetics [7]
  Km: 320 µM
  kcat: 0.41 s⁻¹
